In the experiment the target is F-actin polymerized from rabbit skeletal muscle G-actin, stabilized with phalloidin (rabbit), P68135. As to the kind of experiment: co-sedimentation. Particulars: remark: other sources report otherwise.

The text below walks through data of publication PMC5607963.

B1: αE-catenin homodimer, P26231 1-906 (natural protein)
chain: MTAVHAGNINFKWDPKSLEIRTLAVERLLEPLVTQVTTLVNTNSKGPSNKKRGRSKKAHVLAASVEQATENFLEKGDKIAKESQFLKEELVVAVEDVRKQGDLMKSAAGEFADDPCSSVKRGNMVRAARALLSAVTRLLILADMADVYKLLVQLKVVEDGILKLRNAGNEQDLGIQYKALKPEVDKLNIMAAKRQQELKDVGNRDQMAAARGILQKNVPILYTASQACLQHPDVAAYKANRDLIYKQLQQAVTGISNAAQATASDDAAQHQGGSGGELAYALNNFDKQIIVDPLSFSEERFRPSLEERLESIISGAALMADSSCTRDDRRERIVAECNAVRQALQDLLSEYMGNAGRKERSDALNSAIDKMTKKTRDLRRQLRKAVMDHVSDSFLETNVPLLVLIEAAKNGNEKEVKEYAQVFREHANKLIEVANLACSISNNEEGVKLVRMSASQLEALCPQVINAALALAAKPQSKLAQENMDLFKEQWEKQVRVLTDAVDDITSIDDFLAVSENHILEDVNKCVIALQEKDVDGLDRTAGAIRGRAARVIHVVTSEMDNYEPGVYTEKVLEATKLLSNTVMPRFTEQVEAAVEALSSDPAQPMDENEFIDASRLVYDGIRDIRKAVLMIRTPEELDDSDFETEDFDVRSRTSVQTEDDQLIAGQSARAIMAQLPQEQKAKIAEQVASFQEEKSKLDAEVSKWDDSGNDIIVLAKQMCMIMMEMTDFTRGKGPLKNTSDVISAAKKIAEAGSRMDKLGRTIADHCPDSACKQDLLAYLQRIALYCHQLNICSKVKAEVQNLGGELVVSGVDSAMSLIQAAKNLMNAVVQTVKASYVASTKYQKSQGMASLNLPAVSWKMKAPEKKPLVKREKQDETQTKIKRASQKKHVNPVQALSEFKAMDSI
The Kd is the concentration at which binding is half-saturated. A high value points to a looser complex. For B1, the Kd turned out to be 2.9 µM.
